These results are taken from PMC5762779, “The peroxisomal AAA-ATPase Pex1/Pex6 unfolds substrates by processive threading” (Nature Communications, 2018).

What all share (conditions): both partners purified
The target of assay [1] is T1, Pex1-FLAG/His-Pex6 hexamer, wild type (S. cerevisiae, UniProt P24004 1-1043; P33760 1-1030).
T1 construct: Pex1, S. cerevisiae W303; Pex6, S. cerevisiae W303; Heterohexamer with alternating subunits; also called WT Pex1/Pex6; Pex1/Pex6; source: E. coli BL21*, co-expressed, purified (Ni-NTA, anti-FLAG, Superose6); copies: 3 + 3
T1 sequence (P24004 whole entry, chain 1 of 2, one chain of several): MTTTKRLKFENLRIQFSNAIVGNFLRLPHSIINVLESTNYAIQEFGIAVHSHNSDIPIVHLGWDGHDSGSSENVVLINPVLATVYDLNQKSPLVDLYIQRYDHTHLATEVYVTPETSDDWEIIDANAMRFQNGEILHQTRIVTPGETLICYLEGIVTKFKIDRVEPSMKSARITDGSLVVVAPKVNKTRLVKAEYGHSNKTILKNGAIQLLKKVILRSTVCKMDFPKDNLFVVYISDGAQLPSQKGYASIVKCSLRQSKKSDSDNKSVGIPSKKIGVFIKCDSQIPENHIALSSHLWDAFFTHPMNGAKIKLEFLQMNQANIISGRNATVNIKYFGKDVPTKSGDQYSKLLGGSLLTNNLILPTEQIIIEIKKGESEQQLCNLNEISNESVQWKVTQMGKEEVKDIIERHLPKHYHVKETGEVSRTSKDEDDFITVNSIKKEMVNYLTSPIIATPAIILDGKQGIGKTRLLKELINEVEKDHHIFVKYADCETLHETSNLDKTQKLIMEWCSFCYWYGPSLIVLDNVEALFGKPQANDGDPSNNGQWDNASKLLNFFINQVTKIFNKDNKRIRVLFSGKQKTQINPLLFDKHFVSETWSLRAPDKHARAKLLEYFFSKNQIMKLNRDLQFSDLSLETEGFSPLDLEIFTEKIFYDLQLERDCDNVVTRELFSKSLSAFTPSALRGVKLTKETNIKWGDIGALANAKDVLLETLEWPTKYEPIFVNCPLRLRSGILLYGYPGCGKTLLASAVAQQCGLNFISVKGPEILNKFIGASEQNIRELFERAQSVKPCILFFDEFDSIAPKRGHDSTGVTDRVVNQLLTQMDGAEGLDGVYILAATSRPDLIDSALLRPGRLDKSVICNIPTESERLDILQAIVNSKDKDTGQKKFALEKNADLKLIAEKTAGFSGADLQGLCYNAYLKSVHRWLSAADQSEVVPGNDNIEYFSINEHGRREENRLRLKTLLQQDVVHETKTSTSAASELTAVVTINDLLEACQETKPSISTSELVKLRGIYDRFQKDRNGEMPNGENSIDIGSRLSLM
Description: inhibition of ATPase activity (ATP/NADH coupled enzyme assay); apparent KD from the concentration-dependent inhibition of the ATPase activity of 5 nM Pex1/Pex6 by titrated Pex15; 5 mM ATP, 2 uM BSA; n = 3 technical replicates.

Assay [2] deals with T2, Pex1-WB2/Pex6-WB2 mutant hexamer (Pex1-E798Q-Strep/His-Pex6-E832Q) (S. cerevisiae, UniProt P24004 1-1043; P33760 1-1030, E798Q | E832Q).
T2 construct: Pex1, S. cerevisiae W303, Walker B D2 mutant; Pex6, S. cerevisiae W303, Walker B D2 mutant; also called Pex1-WB/Pex6-WB; ATPase-deficient Pex1/Pex6; source: E. coli BL21*, co-expressed, purified (Ni-NTA, Streptactin); copies: 3 + 3
T2 sequence (P24004 whole entry E798Q, one chain of several): as the sequence (P24004 whole entry, chain 1 of 2, one chain of several) above, with E798Q counted along it
The assay can be described thus: pull-down; MBP-Pex15 1-309 or MBP-Pex15 1-253 with Pex1-WB2/Pex6-WB2; maltose elution, SDS-PAGE.

For the next assay, the target named is T3, His-Pex6-FLAG (S. cerevisiae, UniProt P33760 1-1030).
T3 construct: Pex6, S. cerevisiae W303, purified individually; not shown: His, N-terminal, kept; FLAG, C-terminal, kept
T3 sequence (looked up): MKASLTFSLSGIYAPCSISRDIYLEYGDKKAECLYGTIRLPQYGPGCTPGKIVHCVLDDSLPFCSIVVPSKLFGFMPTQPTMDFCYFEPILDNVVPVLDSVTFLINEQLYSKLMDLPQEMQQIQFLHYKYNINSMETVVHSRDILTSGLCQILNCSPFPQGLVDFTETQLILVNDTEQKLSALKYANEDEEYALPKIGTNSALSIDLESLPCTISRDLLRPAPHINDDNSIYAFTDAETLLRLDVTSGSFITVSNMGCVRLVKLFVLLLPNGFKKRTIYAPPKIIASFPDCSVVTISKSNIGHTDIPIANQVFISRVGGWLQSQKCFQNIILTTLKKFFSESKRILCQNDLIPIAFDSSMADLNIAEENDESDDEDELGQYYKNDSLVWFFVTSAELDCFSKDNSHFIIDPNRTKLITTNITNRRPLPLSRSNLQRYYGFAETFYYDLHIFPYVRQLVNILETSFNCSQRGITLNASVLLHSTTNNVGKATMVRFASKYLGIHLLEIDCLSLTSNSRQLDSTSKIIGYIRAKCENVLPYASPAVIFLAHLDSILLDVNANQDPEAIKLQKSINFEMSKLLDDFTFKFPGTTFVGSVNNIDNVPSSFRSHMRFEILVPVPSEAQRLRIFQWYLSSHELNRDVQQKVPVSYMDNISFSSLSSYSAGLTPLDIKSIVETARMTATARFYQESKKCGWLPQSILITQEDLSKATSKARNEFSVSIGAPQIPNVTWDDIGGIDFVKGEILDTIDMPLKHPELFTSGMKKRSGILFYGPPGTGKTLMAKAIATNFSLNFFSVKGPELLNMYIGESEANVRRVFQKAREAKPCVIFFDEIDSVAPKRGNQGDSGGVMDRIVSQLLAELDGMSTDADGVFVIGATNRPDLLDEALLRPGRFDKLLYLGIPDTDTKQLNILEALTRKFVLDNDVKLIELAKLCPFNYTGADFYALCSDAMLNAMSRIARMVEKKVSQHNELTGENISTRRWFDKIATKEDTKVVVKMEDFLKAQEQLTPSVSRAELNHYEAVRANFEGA
Description: pull-down; 1 uM MBP-Pex15 1-327-FLAG-His on magnetic amylose resin with 0.5 uM Pex1-Strep/His-Pex6 hexamer, His-Pex1-FLAG, His-Pex6-FLAG or 5 uM His-Pex6 1-215; 1 h, 4 °C, 60 mM HEPES pH 7.6, 150 mM NaCl, 150 mM KCl, 10% glycerol, 0.05% Tween-20, 10 mM MgCl2, 0.5 mM EDTA, 5 mM ATP; maltose elution; SYPRO-Ruby or anti-His blot.

For a further assay, the target named is T4, fluorescein labeled Pex5 (S. cerevisiae, UniProt P35056 1-612, fluorescein (FAM) on a GGGK peptide joined by sortase at the C-terminal LPETGG site).
T4 construct: Pex5, S. cerevisiae W303; after labelling the chain ends LPET-GGGK-FAM; also called Pex5-FAM; source: E. coli BL21*, purified (Ni-NTA, anti-FLAG, Superdex 200), labelled with sortase and GGGK-FAM peptide; not shown: His6, C-terminal, cleaved
T4 sequence (looked up): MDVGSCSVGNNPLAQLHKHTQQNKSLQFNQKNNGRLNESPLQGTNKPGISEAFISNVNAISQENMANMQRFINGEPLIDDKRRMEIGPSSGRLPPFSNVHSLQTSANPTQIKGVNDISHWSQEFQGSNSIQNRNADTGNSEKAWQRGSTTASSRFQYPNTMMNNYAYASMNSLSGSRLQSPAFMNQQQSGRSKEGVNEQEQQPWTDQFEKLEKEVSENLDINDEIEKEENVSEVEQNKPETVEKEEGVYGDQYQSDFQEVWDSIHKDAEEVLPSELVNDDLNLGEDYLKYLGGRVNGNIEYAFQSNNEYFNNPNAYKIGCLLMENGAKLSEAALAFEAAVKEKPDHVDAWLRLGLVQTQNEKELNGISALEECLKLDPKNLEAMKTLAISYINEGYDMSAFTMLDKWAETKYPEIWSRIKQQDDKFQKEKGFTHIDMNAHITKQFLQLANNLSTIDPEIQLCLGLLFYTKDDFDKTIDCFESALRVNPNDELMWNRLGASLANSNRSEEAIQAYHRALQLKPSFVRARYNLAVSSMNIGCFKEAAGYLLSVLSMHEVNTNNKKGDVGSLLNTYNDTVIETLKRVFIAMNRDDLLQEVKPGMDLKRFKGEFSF
The assay can be described thus: pull-down; MBP-Pex6/Pex1 or MBP-Pex15 1-327 on magnetic amylose resin with Pex5-FAM; same conditions as Figure 7B (350 nM Pex5-FAM, 1 h, 4 °C, 60 mM HEPES pH 7.6, 150 mM NaCl, 150 mM KCl, 10% glycerol, 0.05% Tween-20, 10 mM MgCl2, 0.5 mM EDTA, 5 mM ATP); maltose elution; Pex5 seen by its fluorescein.

B1: Pex15 1-309 L22A L23A (domain or fragment, S. cerevisiae, UniProt Q08215 1-309, looked up)
chain: MAASEIMNNLPMHSLDSSLRDAANDDLFIESDESTKSVNDQRSEVFQECVNLFIKRDIKDCLEKMSEVGFIDITVFKSNPMILDLFVSACDIMPSFTKLGLTLQSEILNIFTLDTPQCIETRKIILGDLSKLLVINKFFRCCIKVIQFNLTDHTEQEEKTLELESIMSDFIFVYITKMRTTIDVVGLQELIEIFIFQVKVKLHHKKPSPNMYWALCKTLPKLSPTLKGLYLSKDVSIEDAILNSIDNKIQKDKAKSKGKQRGVKQKIHHFHEPMLHNSSEEQVKVEDAFNQRTSTDSRLQSTGTAPRKK
notes: also called Pex15 L22AL23A; source: E. coli BL21*, purified (Ni-NTA, tag cleaved with PreScission protease, Superdex 200); not shown: His, C-terminal, cleaved
As to B1, the Kd in assay [1] stood at 8.7 µM.

B2: MBP-Pex15 1-309 (domain or fragment, S. cerevisiae, UniProt Q08215 1-309, looked up)
chain: MAASEIMNNLPMHSLDSSLRDLLNDDLFIESDESTKSVNDQRSEVFQECVNLFIKRDIKDCLEKMSEVGFIDITVFKSNPMILDLFVSACDIMPSFTKLGLTLQSEILNIFTLDTPQCIETRKIILGDLSKLLVINKFFRCCIKVIQFNLTDHTEQEEKTLELESIMSDFIFVYITKMRTTIDVVGLQELIEIFIFQVKVKLHHKKPSPNMYWALCKTLPKLSPTLKGLYLSKDVSIEDAILNSIDNKIQKDKAKSKGKQRGVKQKIHHFHEPMLHNSSEEQVKVEDAFNQRTSTDSRLQSTGTAPRKK
notes: not shown: MBP, N-terminal, kept
On to B2, for which the binding result in assay [2] is recorded as “binds”.

B3: MBP-Pex15 1-327-FLAG-His (domain or fragment, S. cerevisiae, UniProt Q08215 1-327, looked up)
chain: MAASEIMNNLPMHSLDSSLRDLLNDDLFIESDESTKSVNDQRSEVFQECVNLFIKRDIKDCLEKMSEVGFIDITVFKSNPMILDLFVSACDIMPSFTKLGLTLQSEILNIFTLDTPQCIETRKIILGDLSKLLVINKFFRCCIKVIQFNLTDHTEQEEKTLELESIMSDFIFVYITKMRTTIDVVGLQELIEIFIFQVKVKLHHKKPSPNMYWALCKTLPKLSPTLKGLYLSKDVSIEDAILNSIDNKIQKDKAKSKGKQRGVKQKIHHFHEPMLHNSSEEQVKVEDAFNQRTSTDSRLQSTGTAPRKKNNDITVLAGSFWAVLKHH
notes: Pex15, S. cerevisiae W303, cytosolic domain, residues 1-327; Held on magnetic amylose resin by its MBP; not shown: MBP, N-terminal, kept; FLAG, C-terminal, kept; His, C-terminal, kept
For B3, the binding result with His-Pex6-FLAG and in the assay with fluorescein labeled Pex5 was “binds” in each case.

B4: MBP-Pex15 1-253 (domain or fragment, S. cerevisiae, UniProt Q08215 1-253, looked up)
chain: MAASEIMNNLPMHSLDSSLRDLLNDDLFIESDESTKSVNDQRSEVFQECVNLFIKRDIKDCLEKMSEVGFIDITVFKSNPMILDLFVSACDIMPSFTKLGLTLQSEILNIFTLDTPQCIETRKIILGDLSKLLVINKFFRCCIKVIQFNLTDHTEQEEKTLELESIMSDFIFVYITKMRTTIDVVGLQELIEIFIFQVKVKLHHKKPSPNMYWALCKTLPKLSPTLKGLYLSKDVSIEDAILNSIDNKIQKDK
notes: as for B2
For B4, the binding result in assay [2] is “binds”.

B5: Pex15 30-309 (domain or fragment, S. cerevisiae, UniProt Q08215 30-309, looked up)
chain: ESDESTKSVNDQRSEVFQECVNLFIKRDIKDCLEKMSEVGFIDITVFKSNPMILDLFVSACDIMPSFTKLGLTLQSEILNIFTLDTPQCIETRKIILGDLSKLLVINKFFRCCIKVIQFNLTDHTEQEEKTLELESIMSDFIFVYITKMRTTIDVVGLQELIEIFIFQVKVKLHHKKPSPNMYWALCKTLPKLSPTLKGLYLSKDVSIEDAILNSIDNKIQKDKAKSKGKQRGVKQKIHHFHEPMLHNSSEEQVKVEDAFNQRTSTDSRLQSTGTAPRKK
notes: begins at E30 (primer 'Pex15 E30 forward', D1:p20); source: E. coli BL21*, purified (Ni-NTA, tag cleaved with PreScission protease, Superdex 200); not shown: His, C-terminal, cleaved
On to B5, for which the Kd in assay [1] was determined as 5.3 µM.

B6: Pex15 12-309 (domain or fragment, S. cerevisiae, UniProt Q08215 12-309, looked up)
chain: MHSLDSSLRDLLNDDLFIESDESTKSVNDQRSEVFQECVNLFIKRDIKDCLEKMSEVGFIDITVFKSNPMILDLFVSACDIMPSFTKLGLTLQSEILNIFTLDTPQCIETRKIILGDLSKLLVINKFFRCCIKVIQFNLTDHTEQEEKTLELESIMSDFIFVYITKMRTTIDVVGLQELIEIFIFQVKVKLHHKKPSPNMYWALCKTLPKLSPTLKGLYLSKDVSIEDAILNSIDNKIQKDKAKSKGKQRGVKQKIHHFHEPMLHNSSEEQVKVEDAFNQRTSTDSRLQSTGTAPRKK
notes: begins at M12 (primer 'Pex15 M12 forward', D1:p20); source: E. coli BL21*, purified (Ni-NTA, tag cleaved with PreScission protease, Superdex 200); not shown: His, C-terminal, cleaved
With B6, the Kd in assay [1] turned out to be 0.86 µM.

B7: Pex15 43-309 (domain or fragment, S. cerevisiae, UniProt Q08215 43-309, looked up)
chain: SEVFQECVNLFIKRDIKDCLEKMSEVGFIDITVFKSNPMILDLFVSACDIMPSFTKLGLTLQSEILNIFTLDTPQCIETRKIILGDLSKLLVINKFFRCCIKVIQFNLTDHTEQEEKTLELESIMSDFIFVYITKMRTTIDVVGLQELIEIFIFQVKVKLHHKKPSPNMYWALCKTLPKLSPTLKGLYLSKDVSIEDAILNSIDNKIQKDKAKSKGKQRGVKQKIHHFHEPMLHNSSEEQVKVEDAFNQRTSTDSRLQSTGTAPRKK
notes: begins at S43 (primer 'Pex15 S43 forward', D1:p20); source: E. coli BL21*, purified (Ni-NTA, tag cleaved with PreScission protease, Superdex 200); not shown: His, C-terminal, cleaved
Turning to B7, the Kd in assay [1] is 5.6 µM.
